Measured values from publication PMC12631010, “5‐Thiohistidine N‐Acetyltransferase from Proteiniphilum Saccharofermentans” (Chembiochem, 2025).

What was measured:
[1] = substrate: CC(=O)SCCNC(=O)CCNC(=O)[C@H](O)C(C)(C)COP(=O)(O)OP(=O)(O)OC[C@H]1O[C@@H](n2cnc3c(N)ncnc32)[C@H](O)[C@@H]1OP(=O)(O)O; experiment: purified protein; format: biochemical, Proteiniphilum saccharofermentans; details: 1000 μM 5-thiohistidine; otherwise same
[2] = substrate: N[C@@H](Cc1[nH]cnc1S)C(=O)O; experiment: purified protein; format: biochemical, Proteiniphilum saccharofermentans; details: 500 μM acetyl-CoA, 0.2 μM enzyme; phosphate pH 8.0, 20 mM NaCl, 2 mM TCEP, 26 °C (buffer and temperature from the activity assay); pH 8.0; 26.0 °C

B1: 5THNAT (Proteiniphilum saccharofermentans) (protein)
chain: MYLVSGSSLFYGWFKKNMDSIKGTVEIYDLDEYNYPKFRGQLIGLYLHAFTTGDYSQHIDRETVEVTLDDILQDGSGCMAFVGNRLVGLLAAFPLKRDPDFPADTCRDIPVGEAIYIAEVMVHADYRGRRIASKMLNTYLQEKSENYSYAVIRVWEKNMPALELYKKLGFLPVATISQQKLSANKEEFVMNKLYLAVKIIDN
notes: recombinant, produced in Escherichia coli, Ni-NTA purified (tag details not in main text)
Km [1]: 73 µM
Km [2]: 58 µM
